The values below come from patent publication US12662542B2, “Agnostic anti-mullerian hormone receptor binding peptides” (OVARES D LLC, priority 2019, dated 2026).

One test addresses T1, AMH-R2 (Homo sapiens, UniProt Q16671).
T1 construct: GST
T1 sequence (Q16671 18-573): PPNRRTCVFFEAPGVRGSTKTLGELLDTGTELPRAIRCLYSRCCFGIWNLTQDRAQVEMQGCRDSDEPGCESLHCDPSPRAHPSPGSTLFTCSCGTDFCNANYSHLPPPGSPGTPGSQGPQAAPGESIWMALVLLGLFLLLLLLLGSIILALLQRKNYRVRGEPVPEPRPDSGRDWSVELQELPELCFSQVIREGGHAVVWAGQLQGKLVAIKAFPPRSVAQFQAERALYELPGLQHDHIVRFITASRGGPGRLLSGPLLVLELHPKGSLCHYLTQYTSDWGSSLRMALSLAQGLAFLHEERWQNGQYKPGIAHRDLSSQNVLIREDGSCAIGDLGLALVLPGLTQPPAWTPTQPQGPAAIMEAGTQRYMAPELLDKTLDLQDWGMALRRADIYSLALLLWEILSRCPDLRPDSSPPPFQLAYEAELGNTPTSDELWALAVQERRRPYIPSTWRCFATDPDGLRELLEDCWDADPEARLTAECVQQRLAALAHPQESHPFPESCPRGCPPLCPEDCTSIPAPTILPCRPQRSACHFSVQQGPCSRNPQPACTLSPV
The test can be described thus: peptide microarray assay identifying AMH receptor binding peptides. As to conditions: microarray signal. The source says: In view of the several actions of AMH, and because of the need for AMH receptor agonists and/or antagonist that can modify the activity of one or more of the AMH receptors, provided herein are AMH receptor binding peptides that modulate the activity of the AMH receptor, as described herein. Briefly, it was hypothesized that peptides that bind AMH receptors could be generated based on the amino acid sequence of the AMH biding site of the AMH-R2 receptor. More particularly, based on the amino acid sequence of the AMH-R2 that is responsible for binding AMH, as well as the amino acid sequences of AMH-R2 that are near the AMH binding site, a peptide microarray was used to identify candidate AMH receptor binding peptides that can activate AMH-R2 and thus produce similar effects to native AMH.
To identify candidate AMH receptor binding peptides described herein, a custom peptide library composed of replicate copies of a 124,000 17 mer peptide microarray was synthesized (Arizona State University, Tempe, AZ) using the method described in Legutki, J. B., et al., Scalable high-density peptide arrays for comprehensive health monitoring. Nat Commun., volume 5, 4785 (2014). The slide was assembled into an Arrayit 4×24 Hybridization Cassette and each peptide microarray was blocked with 150 uL of 30% human sera in 1×PBST for 1 hour at room temperature with shaking After blocking, the slide was washed 3× with 1×PBST using a Biotek plate washer prior to addition of protein targets. Each protein sample was diluted in 30% human sera in 1×PBST and 150 uL of each sample was dispensed into the appropriate wells in the cassette and incubated for 1 hour at 37 C with rotation at 300 rpm on a ThermoMix™ 500 heater/shaker.
After incubation, the cassette was dismantled, the slide washed 3 times in 1×PBST, rinsed three times with distilled, deionized water (ddH2O), and dried in a centrifuge for 2 minutes at 800 rpm. Secondary antibody (anti-GST, GE Healthcare™) was prepared at 10 nM in 30% human sera in 1×PBST and dispensed onto the slide. The slide was incubated for 1 hour at 37 C with rotation at 300 rpm as before. The slide was then washed 3 times in 1×PBST, rinsed 3 times with ddH2O, and dried in a centrifuge for 2 minutes at 800 rpm. Detection antibody, 10 nM Alexa Flour 647 donkey anti-goat IgG (H+L) (ThermoFisher Scientific™), was prepared in 0.75% casein in 1×PBST and dispensed onto the slide. The slide was covered and incubated for 1 hour at 37 C with rotation as before. The slide was washed 3 times in 1×PBST, rinsed 3 times with ddH2O, and dried in a centrifuge for 2 minutes at 800 rpm. The slide was scanned on an Innopsys™ Inoscan 910AL scanner and the resulting TIFF files were analyzed using the Genepix™ Pro 6.0 software. Data files were exported and analyzed using Microsoft Excel™ and JMP™ software.

In test [1] the test system is A2780 (endometroid ovarian cancer) cells. The test can be described thus: MTT cell proliferation assay. As to conditions: 5, 10 and 20 μg/ml, 24 hours, vs untreated control. It counts as cell-based. The procedure:
(§1) This example describes the effect of the AMH receptor binding peptides from Example 1 on cellular proliferation, in accordance with certain example embodiments. Briefly, the first two AMH receptor binding peptides (SEQ ID NOS:1-2) from Table 1 were tested on four types of AMHR2-expressing, immortalized, chemotherapy-resistant ovarian cancer cells: SKOV-3 (ovarian serous cystadenocarcinoma), EL-1 (epithelial ovarian cancer), A2780 (endometroid ovarian cancer), and MDAH (endometroid ovarian cancer) in an MTT Assay (Trevigen™ MTT Cell Proliferation Assay).
(§2) For each cell line, cells were seeded into Falcon tissue culture treated 96-well plates in a fixed volume of 100 mcl at a density of 8,000 cells/well. […] Each experiment was executed in triplicates. For 3+1 treatments×3 wells+10 extra=22 wells×8000 cells per well, the total number of cells needed per AMH receptor binding peptide/cell line was 176,000. The cells were spun down in a sterile 15 ml conical tube for 5 minutes at 200×g and then resuspended in 2.2 ml of media (100 ul per well×22 wells). 100 mcl of the cell-containing fluid (=8,000 cells) were placed in each well of the 96-well plate. After 24 hours the media was removed from each well and replaced with the 4 treatment media (phenol-free media). At this point, 10 extra wells with media, but no cells, were created per each cell line (10×4=40 wells). The AMH receptor binding peptides (AMHR2BP (SEQ ID NO: 1) or AMHR2BP2 (SEQ ID NO: 2)) were administered in the culture medium and the effects analyzed after 24 hours in culture as percentage reduction of cell replication using an MTT […] assay.
Background: Formazan colour is commonly taken as a measure of viable cells.

The test system of test [2] is EL-1 (epithelial ovarian cancer) cells. Kind of test: MTT cell proliferation assay. Format: cell-based. The conditions noted are these: 5, 10 and 20 μg/ml, 24 hours, vs untreated control. On the procedure:
as §1, §2

Test [3] relates to MDAH (endometroid ovarian cancer) cells. The test can be described thus: MTT cell proliferation assay. It counts as cell-based. The conditions noted are these: 5, 10 and 20 μg/ml, 24 hours, vs untreated control. The procedure:
as §1, §2

Test [4] concerns SKOV-3 (ovarian serous cystadenocarcinoma) cells. The test can be described thus: MTT cell proliferation assay. Format: cell-based. As to conditions: 5, 10 and 20 μg/ml, 24 hours, vs untreated control. The procedure: as §1, §2
Test [5] concerns ovarian follicles of C57BL/6J female mice. Kind of test: in vivo mouse ovary histology, follicle count and cell proliferation. The source says: Knowledge of the developmental landmarks and the highly inbred conformity made C57BL/6J female mice a natural choice for this study. In this mouse strain, puberty is characterized by vaginal opening at approximately 25 days of life, estrus 3-4 days later, and subsequently by regular cycling every 5-6 days. Maturity is considered to be reached at 90 days of life (12 weeks).
Briefly, 24 C57BL mature female mice (18 weeks old) were allocated to four (4) experimental groups: baseline group (6 mice), AMHR2BP (SEQ ID NO: 1) group (6 mice), a recombinant rAMH group (6 mice), and control group (6 mice; 21 weeks of age, that received saline). The six mice in the baseline group were euthanized at the beginning of the experiment and comprised the baseline against which to compare the 2 experimental, and the control, groups. Mice in the AMHR2BP (SEQ ID NO: 1) group received AMHR2BP (SEQ ID NO: 1) at a daily dose of 50 μg/day (BP group); the rAMH group received recombinant AMH (rAMH) at a daily dose of 1.8 μg/day (to obtain 24.0 ng/ml serum level), and the control group received normal saline.
In order to accomplish this task, an osmotic pump was implanted intraperitoneally at time zero. […] The osmotic pump (ALZET Osmotic Pumps, model 1004, Cupertino, CA) administered AMHR2BP (SEQ ID NO: 1) and rAMH with a flow rate (QT) of 0.11 μl/h for 4 weeks, based on a mouse temperature of 36.9° C. and a tissue osmolality of 7.5 atm. The daily AMHR2BP (SEQ ID NO: 1) dose was chosen based on the results of Example 3 (above) and estimated in vitro to in vivo extrapolation (IVIVE), while the rAMH dose was determined as described in reference. Mice in the control group were treated with normal saline by using the same osmotic pump vehicle implanted intraperitoneally. All mice in the 2 experimental, and the control, groups were euthanized 3 weeks into the experiment. All mice underwent a blood draw just prior to euthanasia, and their ovaries were explanted for real-time RT-PCR and histological analyses.
After dissection, one ovary was stored in formalin and embedded in paraffin for immunohistochemical examination of follicular development and count with hematoxylin and eosin staining, while Ki67 slides were used for examination of cell proliferation. The other ovary was frozen for mRNA analysis (see below). Five μm-thick sections were serially cut and every 5th section analyzed for follicular counts. All ovarian cortex specimens where obtained from each group, and at least three sections were analyzed in each tissue specimen. The computerized program used for image analysis, CaseCenter™ by 3DHistech Pathology Information System™ (Version 2.3; Budapest, Hungary), allowed us to examine all the sections at the same time and to accurately count all the follicles in each section without redundancy. For follicle counting, the investigators were blinded to the treatment groups. One oocyte surrounded by a monolayer of flat, or cubic, granulosa cells enclosed by a basement membrane identified a primordial (PDF) and a primary follicle (PRF), respectively. Secondary follicles (SEF) were identified with one oocyte surrounded by multiple layers of cubic granulosa cells, and tertiary follicles (TEF) by fluid accumulation amid the granulosa cells.

The subject of a further test is luteinized GCs. The conditions noted are these: rAMH group; cited from earlier work.
Where [6] appears, read: mouse ovarian cortex, 3 weeks, i.p. osmotic pump, AMHR2BP 50 μg/day, rAMH 1.8 μg/day.

Square brackets hold non-standard residues; d marks the D form. Ends that are not written are not given here.

In the test with AMH-R2 (average of Rep 1 and Rep 2), “NGSSlQAVNrlSGVS (NGSS[dL]QAVN[dR][dL]SGVS) [SEQ ID NO: 2]” showed an Average of 65535. The “Rep 1” value with AMH-R2 (replicate 1) worked out at 65535. Also, the “Rep 2” value in the test with AMH-R2 (replicate 2) was found to be 65535. Further, the cell proliferation result in test [1], in test [2], in test [3] and in test [4] was “reduced cellular proliferation” each time.

B1: rAMH: recombinant Anti-Müllerian hormone (rAMH), comparator in the mouse study (protein, UniProt P03971 452-560, looked up)
Muellerian-inhibiting factor: SAGATAADGPCALRELSVDLRAERSVLIPETYQANNCQGVCGWPQSDRNPRYGNHVVLLLKMQVRGAALARPPCCVPTAYAGKLLISLSEERISAHHVPNMVATECGCR
For B1, in test [5] (control group 21 weeks' age), the “PDFs compared with the control (placebo) group” value is recorded as “maintained”, the “PRFs compared with the control (placebo) group” value is reported as “low”, the “SEFs compared with the control (placebo) group” value is listed as “lower” and the “TEFs compared with the control (placebo) group” value is “lower”. Further, in test [5] (setting [6]), the “Corp. Lutea/mm^3 Median” value is on record as 7.5 /mm^3, the “PDF/mm^3 Median” value was 1182 /mm^3, the “PRF/mm^3 Median” value is reported as 514 /mm^3 and the “SEF/mm^3 Median” value was 1144 /mm^3. In addition, the “TEF/mm^3 Median” value in test [5] (setting [6]) is 871 /mm^3. The “reduction of Ki67 and Caspase3” value in the test on luteinized GCs is given as “greater than 30%”.
